From patent US9260754B2, “Connexin mutation detection for lymphatic variation and disease” (University of Pittsburgh—Of the Commonwealth System of …, priority 2010, dated 2016)
Numbering of substitutions follows the chain as printed. Numbers in names are those of the source. Entries after “also recorded” stand apart in the source; their conditions may differ.

Columns and labels:
HeLa cells [1] = assay: Cx47 gap junction plaque formation by immunofluorescent confocal microscopy in transfected HeLa cells; format: cell-based, human; conditions: near confluent transfected HeLa cells
Experimental: Human neonatal foreskin was collected anonymously as discarded tissue according to an IRB protocol. Samples were collected immediately after harvest in DMEM, then fixed in 2% paraformaldehyde for 2 hrs, then stored in 30% sucrose in 1×PBS overnight for cryosectioning, and sectioned in 6 μm slices at −30° C. Transfected (stable and transient) and untransfected HeLa cells were grown to near confluence in coverslip bottom dishes. All cells were rinsed with PBS and fixed with 2% paraformaldehyde. Subsequently, tissue and HeLa cells were processed similarly: following permeabilization with 0.1% Triton X, cells were blocked with 2% BSA. A human Cx47 antibody (ab) was obtained from the S. Scherer laboratory: polyclonal rabbit against amino acids 344-399 in the cytoplasmic C-terminal tail; we used human CNS tissue and positive oligodendrocyte staining as a positive control and primary antibody delete and rabbit IgG as negative controls (data not shown). Cx47 ab was diluted in 0.5% BSA in a 1:200 ratio, applied to cells and incubated at RT for one hour. Mouse monoclonal Proxl (Chemicon) was used as a lymphatic marker for the foreskin samples. Cells were incubated with the secondary abs (Donkey Anti-Rabbit Cy5 and Donkey Anti-Mouse Cy3; Invitrogen) for one hour at RT and washed; Draq5 was used as a nuclear marker. HeLa images were acquired with an inverted Olympus Fluoview 1000 Confocal Microscope 100× oil, 1.4 NA objective. Foreskin images were acquired on a Zeiss Meta LSM 510 inverted confocal microscope with 40× oil, 1.3 N.A. objective. LECs (primary human microvascular adult dermal lymphatics; Lonza) were grown in fibronectin coated coverslip bottom MatTeks dishes in EGM™-2 MV—Microvascular Endothelial Cell Medium-2 (Lonza Inc.) to approximately 80% confluence, and prepared similarly but a commercially available (AbCam) Cx47 ab, polyclonal rabbit against amino acids 41-70 in the human sequence was used along with Drag 5 nuclear marker and phalloidin to mark f-actin.
Immunofluorescence microscopy determines the presence or absence of Cx47 gap junction plaques when the constructs are transiently expressed in HeLa cells. Cx plaques reflect a physiologic accumulation of Cx channels in the cell membrane between cells (tens to thousands of channels); thus plaques are indicative of normal trafficking and gap junction formation at the cell membrane.
Immunofluorescence microscopy determines the presence or absence of Cx47 gap junction plaques when the constructs are transiently expressed in HeLa cells. A human Cx47 antibody was obtained: polyclonal rabbit against amino acids 344-399 in the cytoplasmic C-terminal tail (Orthmann-Murphy J L, et al. Mol Cell Neurosci 2007; 34:629-41); we used human CNS tissue and positive oligodendrocyte staining as a positive control and primary antibody delete as a negative control (data not shown). Cultured HeLa cells were routinely fixed and stained with the primary antibodies against Cx47, along with a nuclear marker, and transfected cells were identified by their EGFP signal. Plaques were imaged using an Olympus Fluoview 1000 confocal microscope, 100× oil objective.

HeLa cells [2] = assay: Wound assay (proliferation/migration) in confluent transfected HeLa cells; format: cell-based, human; conditions: fraction of original wound in HeLa cell monolayer after 24 hrs; mean ± SEM
Experimental: The wound assay, a measure of proliferation/migration, was performed using differential interference contrast time lapse of over 24 hrs using confluent transfected HeLa cells. Analysis was done using TScratch (Geback T, et al. TScratch: a novel and simple software tool for automated analysis of monolayer wound healing assays. Biotechniques 2009; 46:265-74), mean±SEM of at least 10 positions along wound; the scrape width was normalized to the first image for each position. In all cases a two tailed student's T test was applied with p<0.05 considered significant.

HeLa cell pairs = assay: Dual whole cell patch clamp recording of coupling current in transfected HeLa cell pairs; format: cell-based, human; conditions: for electrical coupling: Table 6 (Example 4); for electrical coupling / elect coupling: HeLa cell pairs, 100 mV step, mean ± SEM; for electrical coupling / functional channels in HeLa cell pairs (in words): transfected HeLa cell pairs, voltage step protocol −100 to +100 mV; for elect coupling: Table 3 (Example 2)
Experimental: Coupling currents were recorded using simultaneous double whole-cell patch clamp recordings from isolated pairs of cells that were in contact with one another (determined visually) as previously described. Briefly, the pipette solution consisted of (mM): 130 CsCl, 10 EGTA, 10 HEPES, 3 Mg-ATP, 2 Na-ATP, 0.5 CaCl2, pH 7.3. The culture was bathed in a solution consisting of (mM): 140 NaCl, 5 HEPES, 5 glucose, 4 KCl, 2 CsCl, 2 CaCl2, 2 pyruvate, 1 BaCl2, pH 7.3. Transfected HeLas undergo electrophysiologic analysis in a blinded manner. Pairs of cells were chosen for study only if both expressed the GFP marker indicative of successful transfections; both stable and transient transfectants were analyzed. Patch pipettes were fabricated from borosilicate glass, and coupling currents were amplified by Axopatch 200A amplifiers, filtered at 1 KHz, and digitized at 5 KHz for subsequent analysis using pClamp software (Axon Instruments/Molecular Devices; Sunnyvale, Calif.). All experiments were carried out at room temperature (22° C.). Coupling current was quantified by measuring the peak current recorded in the pair when the neighboring cell received a 100 mV step membrane potential change (in both positive and negative directions). Step changes in membrane potential were delivered to each cell in the pair in sequence and the average current recorded in the neighboring cell was determined and divided by 100 to generate coupling current expressed in pA/mV. Means±SEM were calculated and statistical significance using a one-way analysis of variance and Tukey's post-hoc test, p<0.05.
Coupling current is quantified by measuring the peak current recorded in the pair when the neighboring cell receives a 100 mV step membrane potential change (in both positive and negative directions). Step changes in membrane potential are delivered to each cell in the pair in sequence and the average current recorded in the neighboring cell determined and divided by 100 to generate coupling current expressed in pA/mV (FIG. 6C). Replicate measurements (n=3-6) are made on at least two different days. […] The untransfected HeLa cell pairs also show minimal channel function, as predicted.
Electrophysiologic characteristics of GJIC were measured between HeLa cell pairs transfected with the mutant constructs (as indicated by EGFP expression) by dual whole cell patch clamp recording. All experiments were carried out in a blinded manner. Coupling current is quantified by measuring the peak current recorded in the pair when the neighboring cell receives a 100 mV step membrane potential change (in both positive and negative directions). Step changes in membrane potential are delivered to each cell in the pair in sequence and the average current recorded in the neighboring cell determined and divided by 100 to generate coupling current expressed in pA/mV. Untransfected HeLa cells and cells transfected with empty vector (i.e., no hCx47) were used as additional controls.

HeLa cells [3] = assay: Calcein AM scrape loading and dye transfer in stably transfected HeLa cells; format: cell-based, human; conditions: for dye transfer: ratio, rate normalized to untransfected HeLa cells, Calcein AM scrape loading, 10 min, stably transfected HeLa, mean ± SEM
Experimental: A confluent monolayer of HeLa cells (untransfected and stably transfected, as described above) was grown in DMEM with 10% FBS in coverslip bottom plates (MatTek) and placed in a temperature controlled microincubator (Zeiss). A 10×, 0.4 NA objective was used to collect DIC and GFP images every 5 seconds for 10 minutes without changing media. A pipette loaded with 1 μl Calcein AM (Invitrogen), a gap junction permissive dye with molecular weight 662, −4 charge when intracellular and fluorescent, was used to create a scrape across the monolayer. At least 5 replicate dishes were analyzed on the same day, and WT hCx47 expressing HeLas were grown and assayed as a concurrent control; assays were performed on at least 2 different batches of HeLa cells on different days. Quantitation of the rate of spread was calculated using MetaMorph, by obtaining integrated intensity at the 10th time point, within the first minute of imaging, and then at the endpoint at 10 min, and subtracting the initial intensity from that at the endpoint. Results are reported as mean and SEM, and tested for significance (p<0.05) using an unpaired Student's t-test.
In these mutants, Cx47 appears to concentrate in the ER. Unlike electrophysiologic measurements, dye transfer assays are used to assess GJIC of relatively large molecules. We also found significant differences in GJIC in HeLa cells overexpressing Cx47 lymphedema associated mutations by assessing rates of dye transfer in a conventional scrape assay using stably transfected HeLa cells normalized to rates in untransfected HeLa cells (FIG. 7D; Table 3). […] It is not surprising that the mutants show some differences in GJIC between the electrophysiologic and dye transfer assays given that they are designed to measure different kinds of transport and that Cx channel permeability is now believed to be governed by factors including molecular shape, charge and size, in addition to channel conformation and composition.

[4] = system: Adult human dermal lymphatic microvascular endothelial cells; assay: Lucifer yellow microinjection dye spread in lymphatic endothelial cells expressing mutant constructs; format: cell-based
Experimental: Adult human dermal lymphatic microvascular endothelial cells were cultured in EGM™-2 MV (both from Lonza). Cells were electroporated with 2 μg cDNA of the EGFP tagged mutant constructs and then selected with G418 as described above. Cells were microinjected using a combination (1:4 ratio) of 70 kd Texas Red dextran (Invitrogen) to mark injected cell for reference and Lucifer yellow, a known gap junction permeable dye (m.w. 443, −2 charge), to assess change in extent of spread (Abbaci M, et al. Advantages and limitations of commonly used methods to assay the molecular permeability of gap junctional intercellular communication. Biotechniques 2008; 45:33-52, 6-62). All cells were injected using constant conditions and cells were scored for dye spread in tiers from reference cell, using constant exposure time and thresholding, and were imaged using a Nikon TE2000 with temperature controlled motorized stage and Qlmaging Retiga CCD camera. Images were obtained using differential interference contrast (DIC) and standard filters for EGFP (identify expression of mutation), DAPI (for Lucifer yellow) and dsRed (for dextran) preinjection, immediately post-injection and 2 min after injection. Results were calculated as mean SEM and statistical significance was determined in comparison to WT-hCx47-EGFP expressing cells using a Mann-Whitney Test.

B1: G183C: Cx47 missense mutant G183C (547G>T), intracellular loop, construct expressed in HeLa cells (protein, listed as Homo sapiens)
chain: MSWSFLTRLLEEIHNHSTFVGKVWLTVLVVFRIVLTAVGGEAIYSDEQAKFTCNTRQPGCDNVCYDAFAPLSHVRFWVFQIVVISTPSVMYLGYAVHRLARASEQERRRALRRRPGPRRAPRAHLPPPHAGWPEPADLGEEEPMLGLGEEEEEEETGAAEGAGEEAEEAGAEEACTKAVGADCKAAGTPGPTGQHDGRRRIQREGLMRVYVAQLVARAAFEVAFLVGQYLLYGFEVRPFFPCSRQPCPHVVDCFVSRPTEKTVFLLVMYVVSCLCLLLNLCEMAHLGLGSAQDAVRGRRGPPASAPAPAPRPPPCAFPAAAAGLACPPDYSLVVRAAERARAHDQNLANLALQALRDGAAAGDRDRDSSPCVGLPAASRGPPRAGAPASRTGSATSAGTVGEQGRPGTHERPGAKPRAGSEKGSASSRDGKTTVWI
Q: What does the source list for B1?
A: Cx47 plaque formation (in words) (HeLa cells [1]): Cx47 intercellular plaques; wound assay (HeLa cells [2]): 0.68; electrical coupling (HeLa cell pairs): 68.6 pA/mV; electrical coupling / functional channels in HeLa cell pairs (in words) (HeLa cell pairs): increased electrical coupling; also recorded: increased peak coupling currents

B2: P313L: Cx47 missense mutant P313L (938C>T), C-terminal, construct expressed in HeLa cells (protein, listed as Homo sapiens)
chain: B1 chain with C183G, P313L
Q: Which results are given for B2?
A: elect coupling (HeLa cell pairs): 37.6 pA/mV; electrical coupling / functional channels in HeLa cell pairs (in words) (HeLa cell pairs): well coupled; dye transfer (HeLa cells [3]): 2.10

B3: S45L: Cx47 missense mutant S45L (134C>T), extracellular loop 1, construct expressed in HeLa cells (protein, listed as Homo sapiens)
chain: B1 chain with S45L, C183G
Q: B3 was tested. Which “Cx47 plaque formation (in words)” value (HeLa cells [1]) did it give?
A: Its value is “absence; also recorded: fail to demonstrate Cx 47 plaques”.

Q: And the elect coupling (HeLa cell pairs)?
A: Its elect coupling is 0.1 pA/mV.

Q: And the “electrical coupling / functional channels in HeLa cell pairs (in words)” value (HeLa cell pairs)?
A: The value was “absence of coupling; also recorded: do not exhibit functional channels”.

Q: What about the dye transfer (HeLa cells [3]) of the same molecule?
A: Its dye transfer is 1.11.

B4: R257C: Cx47 missense mutant R257C (769C>T), extracellular loop 2, construct expressed in HeLa cells (protein, listed as Homo sapiens)
chain: B1 chain with C183G, R257C
Q: With B4 as the molecule, how does the “Cx47 plaque formation (in words)” value (HeLa cells [1]) read?
A: The value was “absence; also recorded: fail to demonstrate Cx 47 plaques”.

Q: And the elect coupling (HeLa cell pairs)?
A: Its elect coupling is 0.0 pA/mV.

Q: What about the “electrical coupling / functional channels in HeLa cell pairs (in words)” value (HeLa cell pairs) of the same molecule?
A: Its value is “absence of coupling; also recorded: do not exhibit functional channels”.

Q: What about the dye transfer (HeLa cells [3]) of the same molecule?
A: Its dye transfer is 2.56.

Q: What about the “Calcein AM dye transfer compared to WT-hCx47 transfected HeLa cells (in words)” value (HeLa cells [3]; stably transfected HeLa cells, scrape assay) of the same molecule?
A: Its value is “significantly greater dye transfer”.

B5: H409Y: Cx47 missense mutant H409Y (1225C>T), C terminal, construct expressed in HeLa cells or LECs (protein, listed as Homo sapiens)
chain: B1 chain with C183G, H409Y
Q: How did the LEC spread ([4]; Dye spread to tiers of LECs after 2 min, Lucifer yellow microinjection, mean ± SEM) turn out when B5 was run?
A: Its LEC spread is 0.07 tiers.

Q: And the “dye transfer of Lucifer yellow after microinjection compared to WT-hCx47-EGFP expressing LECs (in words)” value ([4]; LECs expressing the mutations)?
A: Its value is “dramatically impaired dye transfer”.

Q: And the “Cx47 plaque formation (in words)” value (HeLa cells [1])?
A: The value was “Cx47 intercellular plaques”.

Q: And the wound assay (HeLa cells [2])?
A: Its wound assay is 0.73.

Q: And the electrical coupling (HeLa cell pairs)?
A: The electrical coupling was 46.4 pA/mV.

Q: And the “electrical coupling / functional channels in HeLa cell pairs (in words)” value (HeLa cell pairs)?
A: Its value is “well coupled”.
